Laboratory results: patent US20260258115A1 (MAPP BIOPHARMACEUTICAL, published 2026)

Target: RSV fusion glycoprotein (RSV F) on RSV-A2 virus (respiratory syncytial virus, UniProt P03420 26-574)
Assay: cell-based or functional assay

Row | Binder | Neutralization IC50 (RSV subtype A) [µg/mL]
1 | ADI-41423 (antibody, V domains shown) VH: QVQLVESGGGLVKPGGSLRLSCAASGFTFSSYSMNWVRQAPGKGLEWVSSISSSSSYIYYADSVKGRFTISRDNAKNSLYLQMNSLRAEDTAVYYCARDPSSSWNRNDYWGQGTLVTVSS VL: QSVLIQPASVSGSPGQSITISCTGTSSDVGGYNYVSWYQQHPGKAPKLMIYDVSNRPSGVSNRFSGSKSGNTASLTISGLQAEDEADYYCSSYTSSSTLVVFGGGTKVTVL | > 25
2 | ADI-41438 (antibody, V domains shown) VH: QVQLVQSGAEMRRPGSSVRLPCKASGYTFVSHTIVWVRQAPGQGLEWMGGIIPSLRTPNYAQNFQDRLTITADESARTAYMELSSLTSNDTAVYYCARETFQGGYYLDYWGQGTLVTVSS VL: EIVMTQSPGTLSVSPGDTAALSCRASQSVGRNLAWYQQKPGQAPRLLIFGASTRAADIPGRFSGSGSGTEFTLTITSLQSEDFAVYYCQQYNKWPPYTFGQGTKVEIK | > 25
3 | ADI-41364 (antibody, V domains shown) VH: EVQLLESGAEVKKPGASVKVSCKASGYTFTDHSIHWVRQAPGRGLEWMGWFNPHTGVTDYAQKFQGWVTMTSDTSISTAYMELSSLKSDDTAIYFCARDQWETDGAYFLDYWGQGTLVTVSS VL: QSALTQPASVSGSPGQSITISCTGTSSDVGNFKLVSWYQQHPGKAPKLMIYEGNKRPSGVSNRFSGSKSGNTASLTISGLQAEDEADYYCCSSAVSSTFFGTGTKLTVL | 0.14
4 | ADI-41396 (antibody, V domains shown) VH: EVQLVESGGGLVNPGGSLRLSCVVSGFAFSSYGMNWVRQAPGKGLEWVSSISASSSYIDYADSVKGRFIISRDNAKNSLHLQMNSLRAEDTAVYYCARLGYDSSTYYTNWFDPWGRGTLVTVSS VL: QSVVTQEPSVSGAPGQRVTISCTGSSSNIGTGYDVHWYQQLPGAAPKLLIYGNSNRPSGVPDRISGSKSGTSASLAITGLQAEDEADYYCQSYDSSLSGYVFGTGTKVTVL | 1.37
5 | ADI-41397 (antibody, V domains shown) VH: EVQLVESGGGLVKPGGSLRLSCAASGFKFSSYYLNWVRQAPGKGLEWVSSISGGSSYINYADSVKGRFTISRDNAKNTLDLQMSNLRAEDTAVYYCARVVGATGPLYFDLWGRGTLVTVSS VL: QSVLTQPPSVSGAPGQRVTISCTGSSSNIGAGYDVHWYQQFPGTAPKLLIYGNNNRPSGVPDRFSGSKSGTSASLAITGLQAEDEADYYCQSYDSSLSGYVFGAGTKVTVL | 0.09
6 | ADI-41417 (antibody, V domains shown) VH: QVQLVESGGGLVKPGGSLRLSCAASGFTFSSYSMNWVRQAPGKGLEWVSSISAGSSYIYYADSLKGRFTISRDNAKNSLYLQMNSLRAEDTAVYYCARVNTHYYDSSAYHNFDSWGQGTLVTVSS VL: QPVVTQPPSVSGAPGQRVTISCTGSSSNIGAGYDVHWYQQLPGTAPKLLIYGNTNRPSGVPERFSGSKSGTSASLAITGLQAEDEADYYCQSYDTNLSAPWVFGGGTKLTVL | 0.71
7 | ADI-41433 (antibody, V domains shown) VH: EVQLLESGGGAVQPGRFLRLSCAASGFTFRSYGMHWVRQAPGKGLEWVAVISYDGSDKYYADSVKGRFTISRDNSKNTLFLLMNGLRAEDAAVYYCAKDIASAGTLRGSDVWGQGTMVTVSS VL: QPVLTQPRSVSGSPGQSVTISCTGTSSDVGGFNYVSWYQQHPGKAPKLMIYDVRVRPSGVPDRFSGSKSGNTASLTISGLQGEDEADYYCCSYTVTYTLVFGGGTKLTVL | > 25
8 | ADI-41437 (antibody, V domains shown) VH: QVQLVQSGGEVKKPGASVKVSCKASGYTFTHYGISWARQAPGQGIEWMGWINVHNGNTEYAQRFQGRVTMTTDTSTNTAYMEMTSLTSDDTAVYYCARDKIVVVVVPNYHGMDVWGQGTLVTVSS VL: not shown | > 25
9 | ADI-41382 (antibody, V domains shown) VH: EVQLVESGGGLVQPGRSLRLSCAASGFTFDDYAMHWVRQAPGKGLEWVSGISWSGDTRGYAESVKGRFTITRDNAKKYLYLQMNSLRAEDTAFYYCAKDAYYFGSGNEKFYYGMDVWGQGTTVTVSS VL: not shown | 0.02
10 | ADI-41390 (antibody, V domains shown) VH: EVQLVESGGGLVKPGGSLRLSCAASGFSSSSYFMNWVRQAPGKGPEWVSSISGSSSFINYADSVKGRFTISRDNAKNSLYLQMNSLRAEDTAVYYCARAVLPAGVGGYWFDSWGQGTLVTVSS VL: QSVVTQPPSVSGAPGQRVTISCTGSSSNIGAGYDVHWYQHLPGRAPKLLIYGNSNRPSGVPDRFSGSKSGTSASLVITGLQAEDEADYCCQSYDSSLSGAVFGGGTQLTVL | 0.62
11 | ADI-41399 (antibody, V domains shown) VH: QVQLVQSGAEVKKPGASVKVSCKASGYTFTTFAIHWVRQAPGQRLEWMGWINAGNGNTKYSQKFQGRVTITRDTSASTAYMELSSLRSEDTAVYYCARPEISSSSLNEKDDYWGQGTLVTVSS VL: QPVLTQPASVSGSPGQSITISCTGTSSDVGAYDFVSWYQQHPGKAPKFMIYEVSHRPSGVSNRFSGSKSGNTASLTISGLQAEDEADYYCSSYTTSNTLVFGGGTKLTVL | > 25
12 | ADI-41362 (antibody, V domains shown) VH: EVQLVESGGGLVQPGGSLRLSCAASGFTFSDHWMNWVRQTPGKGLEWVANIKPDGRETYYVDSVKGRFTISRDNSKKSVYLQMNSLRAEDTAVYYCVRDGHIVVVTAVPPGFFDLWGRGTLVTVSS VL: DIQVTQSPSSLSASVGDRVTITCQASQDLTKYLNWYQQKPGKAPKLLIYDISNLETGVPSRFSGSGFGTEFTLTISSLQPEDVATYYCQQYQNLPYTFGQGTKVEIK | 0.911
13 | ADI-41424 (antibody, V domains shown) VH: QVQLVQSGAEVREPGASVKVSCKPSGYTFANYGISWVRQAPGQGLEWMAWISAYNGNTNYAPKVQGRVSVTTDSSTGIGYMELRSLRSDDTAVYYCVRDTPAIAGAATLDFWGQGTLVTVSS VL: DIVLTQSPLSLAVTPGQSASISCRSRQSHVFSDGNTYVSWFQQRPGRSPRRLIYRVSYRDSGVPDRFSGSGSGSDFTLRISRVEAEDVGVYYCMQGTHWPRTFGQGTKLEIK | 0.28
14 | ADI-41409 (antibody, V domains shown) VH: QVQLVQSGAEVKKPGASVKVSCKASGYTFTNYGISWVRQAPGQGLEWMGWISAYNGNTNYAQKFQDRVTMTTDTSTSTAYMELRSLRYDDTAVYYCARDTPGEYASAMFDHWGQGTLVTVSS VL: DIVMTQSPLSLPVTLGQPASISCRSSQSLVYSDGNTYLSWFQQRPGQSPRRLIYKVSNRDSGVPDRFSGSGSGTDFTLKISGVEAEDVGVYYCMQGTHWPPTFGQGTKLEIK | 0.29
15 | ADI-41439 (antibody, V domains shown) VH: QVQLVQSGTEVKNPGASVKVSCKASGYTFSNYGITWVRQAPGQGLEWMAWISAYNGNILYAQNVQGRVTMTTDTSTSTGYMELRSLRSDDTAVYYCARDAPAGTLTLLDYWGQGTLVTVSS VL: DIVMTQTPLSLPVTLGQPASISCRPSQSLVYSDGNTYLNWFQQRPGQSPRRLIYKVSNRDSGVPDRFSGSGSGTDFTLRISRVEAEDVGVYYCMQGSHWPYAFGQGTKVEIK | 0.34
16 | ADI-41386 (antibody, V domains shown) VH: QVQLVQSGAEVKKPGASVKVSCKASGYTFTGNYIHWVRQAPGQGLEWMGGINPNSGATNYARKFQGRISMTRDTSINTAYMEVSSLRSDDTATYYCARDAPPVVIPAAIHWFDAWGQGTLVTVSS VL: SYELTQPPSASGTPGQRVTISCSGSSSNIGRNTVNWYQQFSGTAPRLLIYRTNQRPSGVPDRFSGSKSGTSASLVISGLQSEDEADYYCASWHDTLNDVVFGGGTKLTVL | > 25
17 | ADI-41363 (antibody, V domains shown) VH: QVQLVQSGAEVKKPGSSVKVSCKASGGTFSSYAITWVRQAPGQGLEWMGGIIPLFGTAKYAQQFQGRVTITADESTSTAYMELSSLRSEDTAVYYCARDGEVCTNGFCWFLDWGLGTLVTVSS VL: DIRVTQSPSSLSASVGDRVTITCQASQDISNYLNWYQQKPGKAPKLLIYDASKLETGVPSRFSGSGSGTDFTFTISSLQPEDIATYYCQNYGNFPHFGGGTKLEIK | 0.143
18 | ADI-41380 (antibody, V domains shown) VH: QVQLVQSGAEVKKPGESLKISCKGSGYSFTSYWIGWVRQMPGKGLEWMGIIYPGDSDTRYSPSFQGQVTISADKSISTAYLQWSSLKASDTAMYYCASSRAYYDILTGYYVASAETQTKAAFDIWGQGTTVTVSS VL: DIQVTQSPSSLSASVGDRVTITCQASQDISNYLNWYQQKPGKAPKLLIYDASNLETGVPSRFSGSGSGTDFSFTISSLQPEDIATYYCQQYDNLITFGQGTKVEIK | 0.0549
19 | ADI-41394 (antibody, V domains shown) VH: QVQLVQSGAEVKKPGSSVKVSCKASGGTFNTYAISWVRQAPGQGLEWMGGIIPILGVSNYAQRFQGRVTFSADELTNTAYMELSSLRSEDTAVYFCARPVGAYTLGDAFEIWGRGTTVTVSS VL: QPVLTQSSSASASLGSSVKLTCTLSSGHSDFIIAWHQQQPGKAPRYLMKFEGNGRYSKGSGIPDRFSGSSSGADRCLTISNLQSEDEADYYCETWDSNTHVVFGGGTKLTVL | > 25
20 | ADI-41408 (antibody, V domains shown) VH: QVQLVESGAEVKKPGESLKISCRDSGYSFSSFWIGWVRQMPGKGLEWVGIIYPGDSDIRYSPSFQGRVTISADKSISTAYLQWRSLKASDSAMYYCARSEKLGSFDRWGQGTLVTVSS VL: DIQMTQSPSSLSASVGDRVTITCQANRDISNCLNWYQQRPGKAPELLIYDASYLETGVPSRFTGSGSGTDFTFTISSLQPEDIATYYCQQYDNLLFTFGPGTKVEIK | > 25
21 | ADI-41441 (antibody, V domains shown) VH: EVQLVQSGPGLVKPSETLSLTCSVSGASISRYHYYWGWIRQSPGKGLEWIGTIYYSGTTYYNPSLESRVTISADTSKNQVSLKLTSVTAADTAVYYCARGSGDTALDFSFEYWGQGALVTVSS VL: DIQLTQSPSFLSASVGDRITITCRASQGISNSLAWYQQKPGKAPKLLIYAASTLQFAVPSRFSGSGSGTEFTLTISSLQPEDFATYYCQQLDSYPLTFGGGTKLEIK | > 25
